Test results as given in US20140005098A1 (INSERM INSTITUT NATIONAL DE LA SANT ET DE LA RECHERCHE M …, published 2014).

Target: T1, IGF-II (UniProt P01344 25-91)
T1 construct: also called biotinylated IGF-II (tracer form)
Experiment: solid-phase displacement of biotinylated IGF-II tracer (Example 5, to which the sentence points); reference: unfused mini-IGFBP-3
Method: A solid-phase assay was used to study the binding affinity of mini-IGFBP-3-Fc for IGF-II. In this assay, two binding proteins (mini-IGFBP-3 and mini-IGFBP-3-Fc) were immobilized to a support. They were incubated with the biotinylated IGF-II tracer, and then increasing concentrations of IGF-II were added.

T1 sequence (P01344 25-91 limits assumed): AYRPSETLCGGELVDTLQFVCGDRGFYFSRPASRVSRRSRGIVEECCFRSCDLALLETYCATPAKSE

- fold apparent affinity (IC50) against IGFBP-3 derivatives not fused to IgG1 Fc: 7 fold
B1: mini-IGFBP-3-Fc (mini-IGFBP-3-FcIgG1 fusion protein, immunoadhesin) (Fc fusion, human)
chain: GASSAGLGPVVRCEPCDARALAQCAPPPAVCAELVREPGCGCCLTCALSEGQPCGIYTERCGSGLRCQPSPDEARPLQALLDGRGLCVNASAVSGGGSGGSGGSGGSGGETEYGPCRREMEDTLNHLKFLNVLSPRGVHIPNCDKKGFYKKKQCRPSKGRKRGFCWCVDKYGQPLPGYTTKGKEDVHCYSMQSK
notes: range 1-94;range 180-264; also called mini-IGFBP-3 immunoadhesin; not shown: Fc fragment of human IgG1 from the pYM-Fc-IgG1 vector
